According to the supplement of paper PMC6757056:
± gives the standard deviation of the averaged measurements.

B1: library; a variant is named by its letters at N, in order (parent)
chain: GCUGUCACCGAGAAACUGUGAAGUAUAUCUUAAACCUGGGCACUUAAAAGAUAUAUGGAGUUAGUAGUGCAACCUGCUCGGUCUGAUGAGUCCNNNNNNGGACGAAACAGC

Experiments:
cyclic di-GMP [1] = variants of: B1; test: normalized RNA/DNA level without ligand (relative to sTRSVctl = 100) (log10 (% of sTRSVctl)); HEK293T; ligand: cyclic di-GMP (c-di-GMP-II aptamer); higher = less ribozyme self-cleavage, higher mRNA level; settings: reporter: mCherry (pCS4076), ligand present: no
Method in brief: (§1)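 For each 6-well well, 4 µg of library plasmid encoding mCherry-linked ribozyme switches, or eGFP-linked ones in some ligand experiments, was transfected into HEK293T. Any ligand was added 1 h before transfection, and RNA was extracted with EDTA 72 h after it, then reverse-transcribed, amplified, barcoded and sequenced. RNA level was obtained by dividing RNA reads by DNA reads, normalizing to a spiked-in non-cleaving sequence or to the top sequences, then scaling and log-transforming. The top set was 25 sequences, scaling was ×100 with log10, and ≥100 DNA reads were required.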

cyclic di-GMP [2] = variants of: B1; test: normalized RNA/DNA level with ligand (relative to sTRSVctl = 100) (log10 (% of sTRSVctl)); HEK293T; ligand: cyclic di-GMP (c-di-GMP-II aptamer); ligand concentration (+) RNA-Seq: 1 mM; higher = less ribozyme self-cleavage, higher mRNA level; settings: reporter: mCherry (pCS4076), ligand present: yes
Method in brief: as §1

CACCCA
normalized RNA/DNA level without ligand (log10) (cyclic di-GMP [1]): 1.59 ± 0.097
normalized RNA/DNA level with ligand (log10) (cyclic di-GMP [2]): 1.75 ± 0.077

UACGCA
normalized RNA/DNA level without ligand (log10) (cyclic di-GMP [1]): 1.78 ± 0.018
normalized RNA/DNA level with ligand (log10) (cyclic di-GMP [2]): 1.89 ± 0.067

UACGCC
normalized RNA/DNA level without ligand (log10) (cyclic di-GMP [1]): 1.77 ± 0.021
normalized RNA/DNA level with ligand (log10) (cyclic di-GMP [2]): 1.87 ± 0.12

UACGCG
normalized RNA/DNA level without ligand (log10) (cyclic di-GMP [1]): 1.81 ± 0.04
normalized RNA/DNA level with ligand (log10) (cyclic di-GMP [2]): 1.9 ± 0.11

CACCUC
normalized RNA/DNA level without ligand (log10) (cyclic di-GMP [1]): 1.704 ± 0.014
normalized RNA/DNA level with ligand (log10) (cyclic di-GMP [2]): 1.87 ± 0.098

CACCUG
normalized RNA/DNA level without ligand (log10) (cyclic di-GMP [1]): 1.76 ± 0.023
normalized RNA/DNA level with ligand (log10) (cyclic di-GMP [2]): 1.85 ± 0.06

UACCCG
normalized RNA/DNA level without ligand (log10) (cyclic di-GMP [1]): 1.766 ± 0.014
normalized RNA/DNA level with ligand (log10) (cyclic di-GMP [2]): 1.9 ± 0.063

UACCCC
normalized RNA/DNA level without ligand (log10) (cyclic di-GMP [1]): 1.7914 ± 0.0016
normalized RNA/DNA level with ligand (log10) (cyclic di-GMP [2]): 1.89 ± 0.11

GACGGU
normalized RNA/DNA level without ligand (log10) (cyclic di-GMP [1]): 1.633 ± 0.0071
normalized RNA/DNA level with ligand (log10) (cyclic di-GMP [2]): 1.8 ± 0.11

GACGGC
normalized RNA/DNA level without ligand (log10) (cyclic di-GMP [1]): 1.627 ± 0.0064
normalized RNA/DNA level with ligand (log10) (cyclic di-GMP [2]): 1.72 ± 0.088

GACGGG
normalized RNA/DNA level without ligand (log10) (cyclic di-GMP [1]): 1.76 ± 0.027
normalized RNA/DNA level with ligand (log10) (cyclic di-GMP [2]): 1.85 ± 0.062

GACGAG
normalized RNA/DNA level without ligand (log10) (cyclic di-GMP [1]): 1.56 ± 0.091
normalized RNA/DNA level with ligand (log10) (cyclic di-GMP [2]): 1.71 ± 0.071

GACGAC
normalized RNA/DNA level without ligand (log10) (cyclic di-GMP [1]): 1.608 ± 0.0074
normalized RNA/DNA level with ligand (log10) (cyclic di-GMP [2]): 1.78 ± 0.13

CACACG
normalized RNA/DNA level without ligand (log10) (cyclic di-GMP [1]): 1.75 ± 0.036
normalized RNA/DNA level with ligand (log10) (cyclic di-GMP [2]): 1.83 ± 0.095

AAAUCA
normalized RNA/DNA level without ligand (log10) (cyclic di-GMP [1]): 1.595 ± 0.0024
normalized RNA/DNA level with ligand (log10) (cyclic di-GMP [2]): 1.77 ± 0.098

AAAUCU
normalized RNA/DNA level without ligand (log10) (cyclic di-GMP [1]): 1.7 ± 0.026
normalized RNA/DNA level with ligand (log10) (cyclic di-GMP [2]): 1.82 ± 0.13

AAAUCG
normalized RNA/DNA level without ligand (log10) (cyclic di-GMP [1]): 1.54 ± 0.12
normalized RNA/DNA level with ligand (log10) (cyclic di-GMP [2]): 1.73 ± 0.061

AAAUCC
normalized RNA/DNA level without ligand (log10) (cyclic di-GMP [1]): 1.71 ± 0.049
normalized RNA/DNA level with ligand (log10) (cyclic di-GMP [2]): 1.83 ± 0.091

UAAUGG
normalized RNA/DNA level without ligand (log10) (cyclic di-GMP [1]): 1.676 ± 0.013
normalized RNA/DNA level with ligand (log10) (cyclic di-GMP [2]): 1.81 ± 0.087

UAAUGU
normalized RNA/DNA level without ligand (log10) (cyclic di-GMP [1]): 1.652 ± 0.0062
normalized RNA/DNA level with ligand (log10) (cyclic di-GMP [2]): 1.78 ± 0.087

GACACC
normalized RNA/DNA level without ligand (log10) (cyclic di-GMP [1]): 1.71 ± 0.044
normalized RNA/DNA level with ligand (log10) (cyclic di-GMP [2]): 1.83 ± 0.075

GACACA
normalized RNA/DNA level without ligand (log10) (cyclic di-GMP [1]): 1.63 ± 0.018
normalized RNA/DNA level with ligand (log10) (cyclic di-GMP [2]): 1.77 ± 0.07

GACACG
normalized RNA/DNA level without ligand (log10) (cyclic di-GMP [1]): 1.7112 ± 0.0013
normalized RNA/DNA level with ligand (log10) (cyclic di-GMP [2]): 1.82 ± 0.12

GACAGC
normalized RNA/DNA level without ligand (log10) (cyclic di-GMP [1]): 1.74 ± 0.087
normalized RNA/DNA level with ligand (log10) (cyclic di-GMP [2]): 1.87 ± 0.14

GACAGU
normalized RNA/DNA level without ligand (log10) (cyclic di-GMP [1]): 1.662 ± 0.0086
normalized RNA/DNA level with ligand (log10) (cyclic di-GMP [2]): 1.79 ± 0.11

GACAGG
normalized RNA/DNA level without ligand (log10) (cyclic di-GMP [1]): 1.759 ± 0.0092
normalized RNA/DNA level with ligand (log10) (cyclic di-GMP [2]): 1.85 ± 0.037

CACUAG
normalized RNA/DNA level without ligand (log10) (cyclic di-GMP [1]): 1.759 ± 0.017
normalized RNA/DNA level with ligand (log10) (cyclic di-GMP [2]): 1.88 ± 0.14

CACUAC
normalized RNA/DNA level without ligand (log10) (cyclic di-GMP [1]): 1.64 ± 0.037
normalized RNA/DNA level with ligand (log10) (cyclic di-GMP [2]): 1.77 ± 0.11

CACUAU
normalized RNA/DNA level without ligand (log10) (cyclic di-GMP [1]): 1.52 ± 0.067
normalized RNA/DNA level with ligand (log10) (cyclic di-GMP [2]): 1.72 ± 0.076
